Measurements from patent US20060134788.

System: T1, MJ1 integrase (phage phiFC1) (Enterococcus phage phiFC1)
T1 sequence: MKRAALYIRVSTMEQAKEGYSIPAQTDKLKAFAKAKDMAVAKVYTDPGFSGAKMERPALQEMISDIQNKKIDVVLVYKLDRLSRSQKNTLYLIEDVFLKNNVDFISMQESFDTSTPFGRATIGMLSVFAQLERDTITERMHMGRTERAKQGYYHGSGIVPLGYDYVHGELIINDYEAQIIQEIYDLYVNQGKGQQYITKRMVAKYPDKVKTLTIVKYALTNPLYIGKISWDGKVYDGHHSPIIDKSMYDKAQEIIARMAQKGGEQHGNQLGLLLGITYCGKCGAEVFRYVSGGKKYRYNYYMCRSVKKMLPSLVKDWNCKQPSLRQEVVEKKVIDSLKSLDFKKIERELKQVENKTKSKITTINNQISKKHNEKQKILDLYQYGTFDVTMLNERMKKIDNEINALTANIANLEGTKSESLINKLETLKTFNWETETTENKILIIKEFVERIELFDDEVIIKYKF
Assay: cell_activity
Conditions: 396 cells without MJ1, FACS 72 h

In the case of “CGGCCATTGAATTAGGGTGTCGAATTTATCAAAGTAGTCAAATCAAATTTGGCAAAGTTACGTCCAGTCAACAAGTCGCTCAACGATTACTCCAAGAGATGAAGGGGCTGCAACAAGAACATTTAATTTGTATTTACTTGAATACCAAGAATGACATTATCCAACAGAAAACGATTTTCAAAGGATCACTGAATCAAAGTATTGCTCATCCACGCGAAATTTTTCGGGAAGCGGTTAAATATTCTTCTGCTCGCATACTATTAGCTCATAATCATCCATCTGGCAATCCG (double strand) [attB 290 bp]”, the activity (fluorescent cells) (attB x attP integration in 293T cells) is reported as 1240.
“GAAGATCTTGTTCTCGAGCATAGTCTCCTTCAAGTTTTGTTATATCTGATAATAGAGACTTTTCTTTTTGTTGTAAACTATTGATTGACAAATCTGGTCCTCCTTTAAAATATATAATTAATATTGGTTTAATTATACCATTCTATAGGTAAGAACAGTAATATGACCAAATTTAAATATCTTTTTATGCACTAATCAAAGTTTTCCTTACAAGCATTTNTTCAATTACGAGTTGATTTCTTTTATTCAAATGACCATAGACAGCTAGTTCAGATTTTTCGGGTAGCATTAGTAACATATTTGCTAATTCGTATTTGGAGACGATACAGTTTATAGTTTCGTCCTGTGTTACTAATGAGAATCGAACTAGCATTTTTGGGTACATACTTAACATTCTAATCTTTTCAACTACTCCTACATAATTAGTTTTCATAATATCGGCCTCCTAGTAATACAATTATACCGAATGCATGTTCGTATTGTCTATAGGTTTGTATAAATGTAATATTTTAGGTATATGATTTTGTTTATTAGTGTAAATAACACTATGTACCTAAAATTTATATTTAATAATTACCTCATCATCAAATAGTTCTATACGTTCAACAAACTCTTTGATGATAAGGATTTTATTTTCTGTAGTTTCAGTTTCCCAATTAAAAGTTTTTAACGTTTCAAGCTTATTAATTAATGACTCACTTTTGGTACCTTCTAAGTTTGCTATATTGGCAGTTAACGC (double strand) [attP 739 bp]” gave an activity (fluorescent cells) (attP x attB integration in 293T cells) of 1240.
